Square brackets hold non-standard residues; d marks the D form. Ends that are not written are not given here. * marks the point of attachment. Fluorescein(5-NHCOCH2) = O=C(C*)Nc1ccc2c(c1)C(=O)OC21c2ccc(O)cc2Oc2cc(O)ccc21; pS = N[C@@H](COP(=O)(O)O)C(=O)O Where only a bound is given, the exact number is not on record here.

Eleven molecules from patent US20110028686A1 (published 2011) can be followed below.

Assay [1] has as its target T1, HisKIX (UniProt P45481 586-672).
T1 construct: range 586-672; the residue numbers fit mouse CBP; also called His-tagged CBP KIX domain; CBP KIX; not shown: amino-terminal hexahistidine tag and linker of pET15b
The experiment in a line: FP, fluorescein-labelled peptide titrated with HisKIX, 25 C.

Assay [2] has as its target T1, HisKIX. The experiment in a line: FP with HisKIX; end of the range assigned by Table 1.

T1 sequence (P45481 586-672): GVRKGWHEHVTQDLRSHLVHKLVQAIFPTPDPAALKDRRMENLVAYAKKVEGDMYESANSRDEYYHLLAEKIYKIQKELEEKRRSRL

B1: PPKID5^P (designed binder)
peptide: GLSWPTYHGDDAPVRRL[pS]FFYILLDLYLDAPGVC(Fluorescein(5-NHCOCH2))-NH2
modifications: N-terminus assumed
SMILES: CC[C@H](C)[C@H](NC(=O)[C@H](Cc1ccc(O)cc1)NC(=O)[C@H](Cc1ccccc1)NC(=O)[C@H](Cc1ccccc1)NC(=O)[C@H](COP(=O)(O)O)NC(=O)[C@H](CC(C)C)NC(=O)[C@H](CCCNC(=N)N)NC(=O)[C@H](CCCNC(=N)N)NC(=O)[C@@H](NC(=O)[C@@H]1CCCN1C(=O)[C@H](C)NC(=O)[C@H](CC(=O)O)NC(=O)[C@H](CC(=O)O)NC(=O)CNC(=O)[C@H](Cc1c[nH]cn1)NC(=O)[C@H](Cc1ccc(O)cc1)NC(=O)[C@@H](NC(=O)[C@@H]1CCCN1C(=O)[C@H](Cc1c[nH]c2ccccc12)NC(=O)[C@H](CO)NC(=O)[C@H](CC(C)C)NC(=O)CN)[C@@H](C)O)C(C)C)C(=O)N[C@@H](CC(C)C)C(=O)N[C@@H](CC(C)C)C(=O)N[C@@H](CC(=O)O)C(=O)N[C@@H](CC(C)C)C(=O)N[C@@H](Cc1ccc(O)cc1)C(=O)N[C@@H](CC(C)C)C(=O)N[C@@H](CC(=O)O)C(=O)N[C@@H](C)C(=O)N1CCC[C@H]1C(=O)NCC(=O)N[C@H](C(=O)N[C@@H](CSCC(=O)Nc1ccc2c(c1)C(=O)OC21c2ccc(O)cc2Oc2cc(O)ccc21)C(N)=O)C(C)C
notes: also called PPKID5 (phosphorylated)
Regarding B1, in the assay with HisKIX [1], the Kd – broadly, the constant that tells how readily two partners part at equilibrium – stood at 0.534 µM.

B2: PPKID8^U (designed binder)
peptide: GLSWKTDPGDDAPVRRLSFFYILLDLYLDAPGVC(Fluorescein(5-NHCOCH2))-NH2
modifications: N-terminus assumed
SMILES: CC[C@H](C)[C@H](NC(=O)[C@H](Cc1ccc(O)cc1)NC(=O)[C@H](Cc1ccccc1)NC(=O)[C@H](Cc1ccccc1)NC(=O)[C@H](CO)NC(=O)[C@H](CC(C)C)NC(=O)[C@H](CCCNC(=N)N)NC(=O)[C@H](CCCNC(=N)N)NC(=O)[C@@H](NC(=O)[C@@H]1CCCN1C(=O)[C@H](C)NC(=O)[C@H](CC(=O)O)NC(=O)[C@H](CC(=O)O)NC(=O)CNC(=O)[C@@H]1CCCN1C(=O)[C@H](CC(=O)O)NC(=O)[C@@H](NC(=O)[C@H](CCCCN)NC(=O)[C@H](Cc1c[nH]c2ccccc12)NC(=O)[C@H](CO)NC(=O)[C@H](CC(C)C)NC(=O)CN)[C@@H](C)O)C(C)C)C(=O)N[C@@H](CC(C)C)C(=O)N[C@@H](CC(C)C)C(=O)N[C@@H](CC(=O)O)C(=O)N[C@@H](CC(C)C)C(=O)N[C@@H](Cc1ccc(O)cc1)C(=O)N[C@@H](CC(C)C)C(=O)N[C@@H](CC(=O)O)C(=O)N[C@@H](C)C(=O)N1CCC[C@H]1C(=O)NCC(=O)N[C@H](C(=O)N[C@@H](CSCC(=O)Nc1ccc2c(c1)C(=O)OC21c2ccc(O)cc2Oc2cc(O)ccc21)C(N)=O)C(C)C
Take B2: in the assay with HisKIX [2], the “fold enhancement in affinity over KID-AB^U” value was ≥ 37 fold, the “fold enhancement in affinity over KID-B^U” value was ≥ 96 fold and the “fold enhancement in affinity over peptide C^U” value was in the range of 7 to 14 fold. In the assay with HisKIX [1], this molecule showed a Kd of 3.1 µM.

B3: PPKID4^U (designed binder)
peptide: GPSQPTYPGDDAPVRRLSFFYILLDLYLDAPGVC(Fluorescein(5-NHCOCH2))-NH2
modifications: N-terminus assumed
SMILES: CC[C@H](C)[C@H](NC(=O)[C@H](Cc1ccc(O)cc1)NC(=O)[C@H](Cc1ccccc1)NC(=O)[C@H](Cc1ccccc1)NC(=O)[C@H](CO)NC(=O)[C@H](CC(C)C)NC(=O)[C@H](CCCNC(=N)N)NC(=O)[C@H](CCCNC(=N)N)NC(=O)[C@@H](NC(=O)[C@@H]1CCCN1C(=O)[C@H](C)NC(=O)[C@H](CC(=O)O)NC(=O)[C@H](CC(=O)O)NC(=O)CNC(=O)[C@@H]1CCCN1C(=O)[C@H](Cc1ccc(O)cc1)NC(=O)[C@@H](NC(=O)[C@@H]1CCCN1C(=O)[C@H](CCC(N)=O)NC(=O)[C@H](CO)NC(=O)[C@@H]1CCCN1C(=O)CN)[C@@H](C)O)C(C)C)C(=O)N[C@@H](CC(C)C)C(=O)N[C@@H](CC(C)C)C(=O)N[C@@H](CC(=O)O)C(=O)N[C@@H](CC(C)C)C(=O)N[C@@H](Cc1ccc(O)cc1)C(=O)N[C@@H](CC(C)C)C(=O)N[C@@H](CC(=O)O)C(=O)N[C@@H](C)C(=O)N1CCC[C@H]1C(=O)NCC(=O)N[C@H](C(=O)N[C@@H](CSCC(=O)Nc1ccc2c(c1)C(=O)OC21c2ccc(O)cc2Oc2cc(O)ccc21)C(N)=O)C(C)C
notes: also called PPKID4 (unphosphorylated)
Molecule B3 yielded a Kd in the assay with HisKIX [1] of 12.1 µM.

B4: PPKID7^U (designed binder)
peptide: GLSPYTEWGDDAPVRRLSFFYILLDLYLDAPGVC(acetamidofluorescein)-NH2
Take B4: binding in the assay with HisKIX [1] was characterised by a dissociation constant (Kd) of 2.3 µM.

B5: PPKID3^P (designed binder)
peptide: H-GASPHTSSGDDAPVRRL[pS]FFDILLDLYLDAPGVC(Fluorescein(5-NHCOCH2))-NH2
modifications: not fully specified
notes: also called PPKID3 (phosphorylated)
As to B5, in the assay with HisKIX [2], the “fold enhancement in affinity upon phosphorylation” value was 6 to 41 fold, the “fold higher affinity than KID-B^P” value lay in the range of 43 to 87 fold and the ΔΔG upon phosphorylation is -1 kcal/mol. Moreover, in the assay with HisKIX [1], the Kd is 1.2 µM.

B6: PPKID5^U (designed binder)
peptide: GLSWPTYHGDDAPVRRLSFFYILLDLYLDAPGVC(Fluorescein(5-NHCOCH2))-NH2
modifications: N-terminus assumed
SMILES: CC[C@H](C)[C@H](NC(=O)[C@H](Cc1ccc(O)cc1)NC(=O)[C@H](Cc1ccccc1)NC(=O)[C@H](Cc1ccccc1)NC(=O)[C@H](CO)NC(=O)[C@H](CC(C)C)NC(=O)[C@H](CCCNC(=N)N)NC(=O)[C@H](CCCNC(=N)N)NC(=O)[C@@H](NC(=O)[C@@H]1CCCN1C(=O)[C@H](C)NC(=O)[C@H](CC(=O)O)NC(=O)[C@H](CC(=O)O)NC(=O)CNC(=O)[C@H](Cc1c[nH]cn1)NC(=O)[C@H](Cc1ccc(O)cc1)NC(=O)[C@@H](NC(=O)[C@@H]1CCCN1C(=O)[C@H](Cc1c[nH]c2ccccc12)NC(=O)[C@H](CO)NC(=O)[C@H](CC(C)C)NC(=O)CN)[C@@H](C)O)C(C)C)C(=O)N[C@@H](CC(C)C)C(=O)N[C@@H](CC(C)C)C(=O)N[C@@H](CC(=O)O)C(=O)N[C@@H](CC(C)C)C(=O)N[C@@H](Cc1ccc(O)cc1)C(=O)N[C@@H](CC(C)C)C(=O)N[C@@H](CC(=O)O)C(=O)N[C@@H](C)C(=O)N1CCC[C@H]1C(=O)NCC(=O)N[C@H](C(=O)N[C@@H](CSCC(=O)Nc1ccc2c(c1)C(=O)OC21c2ccc(O)cc2Oc2cc(O)ccc21)C(N)=O)C(C)C
notes: also called PPKID5 (unphosphorylated)
With B6, in the assay with HisKIX [1], binding was characterised by a dissociation constant (Kd) of 6.6 µM. This lies in the single-digit micromolar range.

B7: PPKID1^P (designed binder)
peptide: GASDMTYWGDDAPVRRL[pS]FFYILLDLYLDAPGVC(Fluorescein(5-NHCOCH2))-NH2
notes: also called PPKID1 (phosphorylated)
As to B7, in the assay with HisKIX [2], the “fold enhancement in affinity upon phosphorylation” value was 6 to 41 fold, the “fold higher affinity than KID-B^P” value was in the range of 43 to 87 fold and the ΔΔG upon phosphorylation was -2.2 kcal/mol. Further, in the assay with HisKIX [1], the Kd is 0.591 µM.

B8: PPKID1^U (designed binder)
peptide: GASDMTYWGDDAPVRRLSFFYILLDLYLDAPGVC(acetamidofluorescein)-NH2
notes: also called PPKID1 (unphosphorylated)
With B8, in the assay with HisKIX [2], the “fold change in affinity against peptide C^U” value is 1 to 3 fold and the “ΔΔG relative to peptide C^U” value was 0.1 kcal/mol. Binding with HisKIX [1] was put at a Kd of 24.1 µM.

B9: PPKID2^P (designed binder)
peptide: H-GMSRVTPGGDDAPVRRL[pS]FFYILRDLYLDAPGVC(Fluorescein(5-NHCOCH2))-NH2
modifications: not fully specified
notes: also called PPKID2 (phosphorylated)
Molecule B9 gave a Kd with HisKIX [1] of 0.729 µM.

B10: PPKID2^U (designed binder)
peptide: GMSRVTPGGDDAPVRRLSFFYILRDLYLDAPGVC(acetamidofluorescein)-NH2
modifications: not fully specified
notes: also called PPKID2 (unphosphorylated)
In the case of B10, the Kd in the assay with HisKIX [1] turned out to be 12.6 µM. Against the preceding molecule, the Kd is about 17-fold higher.

B11: KID-B^P (peptide)
peptide: RRP[pS]YRKILNDLSSDAPGVC(acetamidofluorescein)-NH2
notes: also called KID-B (phosphorylated); CREB KID residues 130-148
B11 displayed a Kd with HisKIX [1] of 51.6 µM. Compared with the last molecule, the Kd is about 4.1-fold higher.
